Measurements: publication PMC2275084

Legend:
[1] = target: T1, N519 (Tetrahymena thermophila, UniProt O77448 1-519); experiment: NeutrAvidin pull-down
T1 sequence: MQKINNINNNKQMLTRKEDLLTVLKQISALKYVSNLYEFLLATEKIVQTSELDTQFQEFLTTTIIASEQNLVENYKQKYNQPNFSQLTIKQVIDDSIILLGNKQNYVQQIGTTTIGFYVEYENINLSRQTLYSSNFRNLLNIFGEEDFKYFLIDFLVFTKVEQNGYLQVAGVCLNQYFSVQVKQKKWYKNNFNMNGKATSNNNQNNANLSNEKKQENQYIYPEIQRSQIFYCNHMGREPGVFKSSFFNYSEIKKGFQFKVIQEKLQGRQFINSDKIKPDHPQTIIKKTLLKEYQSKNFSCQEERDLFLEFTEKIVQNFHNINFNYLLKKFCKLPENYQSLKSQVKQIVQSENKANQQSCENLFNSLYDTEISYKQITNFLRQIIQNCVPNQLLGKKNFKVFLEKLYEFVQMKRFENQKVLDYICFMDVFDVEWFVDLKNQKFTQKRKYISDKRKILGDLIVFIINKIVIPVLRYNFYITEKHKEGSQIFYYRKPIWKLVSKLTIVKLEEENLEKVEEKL

[2] = target: T2, TERT deltaC233 (Tetrahymena thermophila, UniProt O77448 1-884); experiment: NeutrAvidin pull-down
T2 sequence: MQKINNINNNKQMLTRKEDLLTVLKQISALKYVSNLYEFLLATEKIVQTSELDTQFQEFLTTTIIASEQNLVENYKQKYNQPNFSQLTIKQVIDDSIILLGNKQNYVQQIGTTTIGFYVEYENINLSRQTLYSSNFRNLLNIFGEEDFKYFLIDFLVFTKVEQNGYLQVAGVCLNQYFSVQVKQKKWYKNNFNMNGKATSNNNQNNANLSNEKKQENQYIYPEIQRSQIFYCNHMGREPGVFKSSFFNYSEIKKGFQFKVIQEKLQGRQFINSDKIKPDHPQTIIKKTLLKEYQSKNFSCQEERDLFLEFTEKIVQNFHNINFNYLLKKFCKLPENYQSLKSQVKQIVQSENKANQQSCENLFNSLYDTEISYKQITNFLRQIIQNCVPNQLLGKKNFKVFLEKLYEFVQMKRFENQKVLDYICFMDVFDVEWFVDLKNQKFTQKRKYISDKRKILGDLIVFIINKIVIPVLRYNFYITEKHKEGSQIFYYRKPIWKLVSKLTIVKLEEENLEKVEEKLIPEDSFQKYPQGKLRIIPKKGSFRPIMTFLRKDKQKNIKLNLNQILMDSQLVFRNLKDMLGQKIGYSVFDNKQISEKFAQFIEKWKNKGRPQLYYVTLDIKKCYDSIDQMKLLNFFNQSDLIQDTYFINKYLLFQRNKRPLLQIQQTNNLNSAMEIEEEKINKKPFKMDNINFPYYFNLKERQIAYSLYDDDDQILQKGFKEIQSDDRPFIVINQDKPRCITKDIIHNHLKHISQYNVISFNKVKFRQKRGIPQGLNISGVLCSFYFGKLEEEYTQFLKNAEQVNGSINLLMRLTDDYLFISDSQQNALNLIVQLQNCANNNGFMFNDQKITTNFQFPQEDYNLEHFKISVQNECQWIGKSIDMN

[3] = target: T3, TERT deltaTEN (Tetrahymena thermophila, UniProt O77448 192-1117); experiment: NeutrAvidin pull-down
T3 sequence: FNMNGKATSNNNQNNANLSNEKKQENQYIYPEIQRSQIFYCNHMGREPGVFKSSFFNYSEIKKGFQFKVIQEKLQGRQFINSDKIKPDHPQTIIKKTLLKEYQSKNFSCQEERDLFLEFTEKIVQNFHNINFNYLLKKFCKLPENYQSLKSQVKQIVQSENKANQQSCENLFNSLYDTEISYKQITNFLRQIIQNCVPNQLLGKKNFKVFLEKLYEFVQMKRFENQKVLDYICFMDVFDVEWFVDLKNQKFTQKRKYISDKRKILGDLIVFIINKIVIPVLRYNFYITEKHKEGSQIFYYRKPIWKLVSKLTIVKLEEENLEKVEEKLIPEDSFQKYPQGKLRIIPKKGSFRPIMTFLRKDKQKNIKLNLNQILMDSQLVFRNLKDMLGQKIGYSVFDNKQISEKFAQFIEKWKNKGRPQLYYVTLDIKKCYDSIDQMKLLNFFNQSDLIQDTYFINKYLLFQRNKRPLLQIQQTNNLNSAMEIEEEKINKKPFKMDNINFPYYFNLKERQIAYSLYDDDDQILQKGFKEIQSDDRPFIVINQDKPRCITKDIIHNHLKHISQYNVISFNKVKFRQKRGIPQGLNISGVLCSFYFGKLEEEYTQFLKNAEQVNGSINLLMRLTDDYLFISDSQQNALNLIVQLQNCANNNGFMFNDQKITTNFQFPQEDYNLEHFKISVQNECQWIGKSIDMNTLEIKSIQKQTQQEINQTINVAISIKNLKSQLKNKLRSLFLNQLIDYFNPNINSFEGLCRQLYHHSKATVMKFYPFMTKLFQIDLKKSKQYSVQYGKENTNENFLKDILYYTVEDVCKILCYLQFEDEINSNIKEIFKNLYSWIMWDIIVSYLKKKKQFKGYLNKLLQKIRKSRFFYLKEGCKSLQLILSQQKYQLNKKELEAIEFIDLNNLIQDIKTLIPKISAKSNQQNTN

[4] = target: T4, TEN domain (in vitro translated) (Tetrahymena thermophila, UniProt O77448 2-191); experiment: NeutrAvidin pull-down
T4 sequence: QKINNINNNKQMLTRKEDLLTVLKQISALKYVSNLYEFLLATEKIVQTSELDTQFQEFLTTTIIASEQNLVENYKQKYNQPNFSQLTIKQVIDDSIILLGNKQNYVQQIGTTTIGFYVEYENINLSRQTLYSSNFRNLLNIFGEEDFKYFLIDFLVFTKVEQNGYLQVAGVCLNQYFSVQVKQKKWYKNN

[5] = target: T1, N519; experiment: UV crosslinking
[6] = target: T5, C598 (Tetrahymena thermophila, UniProt O77448 520-1117); experiment: UV crosslinking
T5 sequence: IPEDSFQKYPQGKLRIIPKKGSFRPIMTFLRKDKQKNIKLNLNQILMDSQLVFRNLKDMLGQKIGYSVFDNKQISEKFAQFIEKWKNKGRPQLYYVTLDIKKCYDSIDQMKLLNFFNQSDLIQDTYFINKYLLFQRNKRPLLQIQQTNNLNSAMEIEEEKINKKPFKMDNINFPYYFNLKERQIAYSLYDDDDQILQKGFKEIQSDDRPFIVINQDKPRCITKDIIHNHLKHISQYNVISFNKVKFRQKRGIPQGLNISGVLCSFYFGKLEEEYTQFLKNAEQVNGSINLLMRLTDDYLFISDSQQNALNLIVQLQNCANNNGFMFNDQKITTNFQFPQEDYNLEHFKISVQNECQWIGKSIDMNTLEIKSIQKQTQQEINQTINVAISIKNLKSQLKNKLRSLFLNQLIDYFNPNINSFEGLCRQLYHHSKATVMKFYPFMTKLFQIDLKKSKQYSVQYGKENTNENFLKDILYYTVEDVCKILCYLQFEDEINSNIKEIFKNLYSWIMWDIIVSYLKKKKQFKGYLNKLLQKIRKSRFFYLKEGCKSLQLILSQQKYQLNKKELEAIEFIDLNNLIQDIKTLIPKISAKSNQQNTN

[7] = target: T6, TEN domain (E. coli) (Tetrahymena thermophila, UniProt O77448 2-191); experiment: UV crosslinking
T6 sequence: T4 sequence

GGGGTTGGGGTTGGGGTT (ssDNA, 5' biotin) [Bio-18GTT]
binding signal [1]: ~6 fold lower affinity than full-length TERT | binding signal [2]: ~4 fold higher Kd than full-length TERT | binding signal [3]: ~4 fold higher Kd than full-length TERT | binding result [4]: no binding

TTGGGGUTGGGGTTGGGGTT (ssDNA, 5-iodo-dU at position 7) [I(7)20GTT]
binding result [5]: binds | binding result [6]: binds | binding result [7]: binds

UTGGGGTTGGGGTTGGGGTT (ssDNA, 5-iodo-dU at position 1) [I(1)20GTT]
binding result [5]: binds | binding result [6]: binds

TTGGGGTTGGGGTTGGGGUT (ssDNA, 5-iodo-dU at position 19) [I(19)20GTT]
binding result [5]: binds | binding result [6]: binds | binding result [7]: binds

TTGGGGTTGGGGUTGGGGTT (ssDNA, 5-iodo-dU at position 13) [I(13)20GTT]
binding result [5]: binds | binding result [6]: binds | binding result [7]: binds
